Test results taken from PMC4264349.

Biological target: Biotinylated calmodulin (UniProt P62157)
Assay: film bulk acoustic resonator (FBAR); biotinylated calmodulin immobilised on Neutravidin adsorbed on the gold sensor surface (190 ng/cm^2 shown; qualitatively the same at all surface concentrations); peptide injected in flow, 10 µL/min; 10 mM HEPES-NaOH, pH 7.2, 100 mM NaCl, 1 mM CaCl2; resonant frequency and motional resistance monitored; peptide concentration not given

Ca2+/calmodulin kinase II inhibitor (CaMKII 281-309) (from UniProt P11275 281-309) (peptide)
resonant frequency shift at saturation: -1.4 MHz
